This test has as its target FGF receptor/BKL complex (human) (UniProt Q86Z14). Briefly: cell-based or functional assay.

Chain of FGF receptor/BKL complex (human) (Q86Z14 whole entry, one chain of several): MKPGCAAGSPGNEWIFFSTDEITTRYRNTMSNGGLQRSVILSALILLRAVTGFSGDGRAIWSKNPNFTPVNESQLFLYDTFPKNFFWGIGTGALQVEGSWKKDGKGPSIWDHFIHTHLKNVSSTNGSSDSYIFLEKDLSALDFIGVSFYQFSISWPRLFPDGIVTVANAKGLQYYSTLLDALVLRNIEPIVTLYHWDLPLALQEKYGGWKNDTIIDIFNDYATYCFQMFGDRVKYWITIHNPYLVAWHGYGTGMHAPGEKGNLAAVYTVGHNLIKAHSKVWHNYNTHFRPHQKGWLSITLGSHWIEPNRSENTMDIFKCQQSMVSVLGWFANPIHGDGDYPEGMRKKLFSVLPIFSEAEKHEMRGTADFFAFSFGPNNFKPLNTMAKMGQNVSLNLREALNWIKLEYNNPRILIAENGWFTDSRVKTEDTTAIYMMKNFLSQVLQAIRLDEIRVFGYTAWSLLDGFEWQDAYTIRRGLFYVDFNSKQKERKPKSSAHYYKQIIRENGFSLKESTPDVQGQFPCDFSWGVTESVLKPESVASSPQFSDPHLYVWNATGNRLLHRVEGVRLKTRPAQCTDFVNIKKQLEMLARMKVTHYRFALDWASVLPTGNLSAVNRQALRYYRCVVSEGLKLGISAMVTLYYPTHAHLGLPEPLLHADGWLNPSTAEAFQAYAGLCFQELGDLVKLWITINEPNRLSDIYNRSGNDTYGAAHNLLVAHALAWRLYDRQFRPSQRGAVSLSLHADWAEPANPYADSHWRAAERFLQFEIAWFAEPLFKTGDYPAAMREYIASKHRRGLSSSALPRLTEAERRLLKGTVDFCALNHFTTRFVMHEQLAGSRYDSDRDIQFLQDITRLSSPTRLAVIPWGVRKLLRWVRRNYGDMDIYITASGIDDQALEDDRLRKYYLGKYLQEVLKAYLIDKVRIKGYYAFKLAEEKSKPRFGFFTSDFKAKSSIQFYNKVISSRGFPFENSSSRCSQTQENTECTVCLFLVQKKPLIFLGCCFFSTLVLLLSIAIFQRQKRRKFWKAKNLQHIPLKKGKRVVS

In turn, “Met-FGF21 (Comparator) SEQ ID NO: 36 (from UniProt Q9NSA1 29-209) (ligand)” came in with an FGF1 receptor potency [EC50] nM 0.1% HSA of 0.44 nM and an FGF21 receptor potency [EC50] nM 0% HSA of 0.52 nM.

In turn, “S{Beta-180}-[2-[2-[[2-[2-[2-[[2-[2-[2-[[(4S)-4-carboxy-4-(17-carboxyheptadecanoyl-amino)butanoyl]amino]ethoxy]ethoxy]acetyl]amino]ethoxy]ethoxy]acetyl]amino]-ethylamino]-2-oxoethyl]-Ala[Gln121,Leu168,Cys180]FGF21(1-181) (from UniProt Q9NSA1 28-209) (ligand)” yielded an FGF1 receptor potency [EC50] nM 0.1% HSA of 10.1 nM and an FGF21 receptor potency [EC50] nM 0% HSA of 2.5 nM.

The values above are taken from US20240400635A1.
